Assay results published in publication PMC9379584 (iScience, 2022).
Several values for one entry are separate records, joined by “and”; a condition that tells them apart may be missing. Equal entries are not always repeated. Where two headings read alike, the source gives them in different places.

Tests used:
mouse pancreatic islets [1] = test: Glucose-stimulated insulin secretion; assay type: cell-based; conditions: read-out: IC50, inhibition of GSIS; wildtype mouse islets, 20 mM glucose, 90 min
INS-1E cells [2] = test: Glucose-stimulated insulin secretion; assay type: cell-based, rat; conditions: read-out: IC50, inhibition of GSIS; INS-1E, 20 mM glucose, 90 min
INS-1E cells [3] = test: HTRF cAMP assay in INS-1E cells; assay type: cell-based, rat; conditions: normalized to DA's efficacy in parental INS-1E
[4] = test system: α2A-AR KO INS-1E-derived cell line; test: HTRF cAMP assay in α2A-AR KO INS-1E-derived cells; assay type: cell-based, rat
α2A-AR [5] = target: T1, α2A-AR (Rattus norvegicus, UniProt P22909); test: cell-based; conditions: nanoBRET
T1 sequence (P22909 1-465): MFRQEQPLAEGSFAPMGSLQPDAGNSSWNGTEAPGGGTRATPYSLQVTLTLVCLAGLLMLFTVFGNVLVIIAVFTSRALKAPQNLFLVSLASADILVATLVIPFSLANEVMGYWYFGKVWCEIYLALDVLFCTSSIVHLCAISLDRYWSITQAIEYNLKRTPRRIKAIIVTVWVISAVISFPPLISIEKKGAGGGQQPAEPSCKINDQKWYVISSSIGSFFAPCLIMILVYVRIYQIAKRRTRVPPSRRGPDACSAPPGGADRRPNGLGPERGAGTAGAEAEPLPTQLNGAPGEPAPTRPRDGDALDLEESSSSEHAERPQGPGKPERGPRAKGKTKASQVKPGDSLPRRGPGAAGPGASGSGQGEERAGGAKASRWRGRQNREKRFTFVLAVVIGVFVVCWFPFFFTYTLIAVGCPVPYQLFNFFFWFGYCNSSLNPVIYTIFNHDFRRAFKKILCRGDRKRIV

α2A-AR [6] = target: T1, α2A-AR; assay type: cell-based; conditions: nanoBRET
mouse pancreatic islets [7] = conditions: cited from earlier work
INS-1E cells [8] = conditions: cited from earlier work
[9] = target: IL6-HiBiT-α2A-AR-HaloTag (rat α2A-adrenergic receptor) (rat) (UniProt P22909); test: FRET or BRET
[10] = target: IL6-HiBiT-D2R-HaloTag (human dopamine D2 receptor) (human) (UniProt P14416); test: FRET or BRET
Sequence of IL6-HiBiT-D2R-HaloTag (human dopamine D2 receptor) (human) (P14416 whole entry): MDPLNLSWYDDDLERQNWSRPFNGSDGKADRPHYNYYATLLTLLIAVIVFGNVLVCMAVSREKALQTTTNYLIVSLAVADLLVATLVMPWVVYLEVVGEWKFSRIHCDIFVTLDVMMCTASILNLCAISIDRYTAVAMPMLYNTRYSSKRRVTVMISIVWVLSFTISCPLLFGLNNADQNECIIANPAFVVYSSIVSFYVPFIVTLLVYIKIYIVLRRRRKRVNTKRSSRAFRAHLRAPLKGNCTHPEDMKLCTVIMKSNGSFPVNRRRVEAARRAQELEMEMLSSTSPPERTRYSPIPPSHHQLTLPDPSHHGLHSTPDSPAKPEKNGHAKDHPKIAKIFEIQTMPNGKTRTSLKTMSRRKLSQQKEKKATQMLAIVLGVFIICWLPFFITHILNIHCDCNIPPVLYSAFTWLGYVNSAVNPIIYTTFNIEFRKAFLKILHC

[11] = target: IL6-HiBiT-D2R-HaloTag (human dopamine D2 receptor) (human, UniProt P14416 1-443, HaloTag NanoBRET 618 ligand bound to the HaloTag); test: FRET or BRET
Sequence of IL6-HiBiT-D2R-HaloTag (human dopamine D2 receptor) (P14416 whole entry): as above

[12] = α2A-AR KO versus parental INS-1E
[13] = read-out: IC50, inhibition of GSIS, ref Aslanoglou et al. (2021)
[14] = read-out: IC50, inhibition of GSIS, ref Aslanoglou et al., 2021

Work on `Clc1cccc(Cl)c1N=C1NCCN1` [Clonidine, clonidine] yielded an IC50 (mouse pancreatic islets [1]) of 7.36 nM and an IC50 (INS-1E cells [2]) of 9.06 nM.

With `NCCc1ccc(O)c(O)c1` [DA, dopamine] the “Emax, inhibition of cAMP production” value (INS-1E cells [3]) was 100.00 % DA, the IC50 ([4]; read-out: IC50, inhibition of cAMP production, α2A-AR KO) was 1500 nM and the “increase of potency in diminishing cAMP by α2A-AR KO” value [4, 12] was 1.7 fold. The “reduction of efficacy in lowering cAMP by α2A-AR KO” value [4, 12] was 57% and 57.2%, the “Emax, inhibition of cAMP production” value ([4]; α2A-AR KO, normalized to DA's efficacy in parental INS-1E) was 57.15 [46.22–88.79] % DA and the EC50 (α2A-AR [5]; EC50, Gαi2 recruitment to α2A-AR, Gαi2) was 1040 nM. For the same molecule, the EC50 (α2A-AR [5]; EC50, Gαi3 recruitment to α2A-AR, Gαi3) was 1030 nM, the EC50 (α2A-AR [5]; EC50, GαoA recruitment to α2A-AR, GαoA) was 836 nM and the EC50 (α2A-AR [5]; EC50, GαoB recruitment to α2A-AR, GαoB) was 945 nM. For the same molecule, the EC50 (α2A-AR [5]; EC50, Gαz recruitment to α2A-AR, Gαz) was 666 nM, the EC50 (α2A-AR [5]; pEC50, GαoB recruitment to α2A-AR, GαoB) was 933 nM and the “β-arrestin1 recruitment to α2A-AR” value (α2A-AR [6]) was “negligible recruitment”. The IC50 (mouse pancreatic islets [7]; [13]) was 1300 nM, the IC50 (mouse pancreatic islets [7]; [14]) was 1300 nM and the “pIC50, inhibition of GSIS” value (mouse pancreatic islets [7]; ref Aslanoglou et al. (2021)) was 5.89. The IC50 (INS-1E cells [8]; [13]) was 1490 nM, the IC50 (INS-1E cells [8]; [14]) was 1500 nM and the “pIC50, inhibition of GSIS” value (INS-1E cells [8]; ref Aslanoglou et al. (2021)) was 5.83.

With “NanoLuc-Gαi1(91) (from UniProt P63096 1-354) (natural protein)” the Emax of recruitment with bromocriptine (% of the NE response) (% of NE response) [9] was 15.4.

“NanoLuc-Gαi1(91) (from UniProt P63096 1-354) (natural protein; other documents disagree on this pair)” showed an EC50 of the agonist NE for recruitment [10] of 4900 nM, an EC50 of the agonist bromocriptine for recruitment [10] of 104 nM and an Emax of recruitment with bromocriptine (% of the DA response) (% of DA response) [10] of 60.

“NanoLuc-Gαi2(91) (from UniProt P04899 1-355) (natural protein)” showed an Emax of recruitment with bromocriptine (% of the NE response) (% of NE response) [9] of 43.8.

Molecule “NanoLuc-Gαi2(91) (from UniProt P04899 1-355) (natural protein; other documents disagree on this pair)” has an EC50 of the agonist DA for recruitment [10] of 2.88 nM, an EC50 of the agonist NE for recruitment [10] of 25.3 nM and an EC50 of the agonist bromocriptine for recruitment [10] of 21.6 nM. It also gave an Emax of recruitment with bromocriptine (% of the DA response) (% of DA response) [10] of 89.3.

Molecule “NanoLuc-Gαi3(91) (from UniProt P08754 1-354) (natural protein)” has an Emax of recruitment with bromocriptine (% of the NE response) (% of NE response) [9] of 12.7.

Work on “NanoLuc-Gαi3(91) (from UniProt P08754 1-354) (natural protein; other documents disagree on this pair)” yielded an EC50 of the agonist NE for recruitment [10] of 32600 nM, an EC50 of the agonist bromocriptine for recruitment [10] of 84.3 nM and an Emax of recruitment with bromocriptine (% of the DA response) (% of DA response) [10] of 64.2.

With “NanoLuc-GαoA(91) (from UniProt P09471 1-354) (natural protein)” the Emax of recruitment with bromocriptine (% of the NE response) (% of NE response) [9] was 43.

For “NanoLuc-GαoA(91) (from UniProt P09471 1-354) (natural protein; other documents disagree on this pair)”, the Emax of recruitment with bromocriptine (% of the DA response) (% of DA response) [10] was 109.

For “NanoLuc-Gαz(91) (from UniProt P19086 1-355) (natural protein)”, the Emax of recruitment with bromocriptine (% of the NE response) (% of NE response) [9] was 21.2.

“NanoLuc-Gαz(91) (from UniProt P19086 1-355) (natural protein; other documents disagree on this pair)” gave an EC50 of the agonist NE for recruitment [10] of 0.07 nM, an EC50 of the agonist bromocriptine for recruitment [10] of 4.3 nM and an Emax of recruitment with bromocriptine (% of the DA response) (% of DA response) [10] of 66.5.

B1: NanoLuc-GαoB(91) (natural protein)
chain: MGCTLSAEERAALERSKAIEKNLKEDGISAAKDVKLLLLGAGESGKSTIVKQMKIIHEDGFSGEDVKQYKPVVYSNTIQSLAAIVRAMDTLGIEYGDKERKADAKMVCDVVSRMEDTEPFSAELLSAMMRLWGDSGIQECFNRSREYQLNDSAKYYLDSLDRIGAADYQPTEQDILRTRVKTTGIVETHFTFKNLHFRLFDVGGQRSERKKWIHCFEDVTAIIFCVALSGYDQVLHEDETTNRMHESLKLFDSICNNKWFTDTSIILFLNKKDIFEEKIKKSPLTICFPEYTGPSAFTEAVAYIQAQYESKNKSAHKEIYTHVTCATDTNNIQFVFDAVTDVIIAKNLRGCGLY
For B1, the “EC50 of the agonist DA for recruitment” value [11] was 22.4 nM, the “EC50 of the agonist NE for recruitment” value [11] was 139 nM and the “EC50 of the agonist bromocriptine for recruitment” value [11] was 0.27 nM.
